The record followed here is patent US20170298096A1 (CANIMGUIDE THERAPEUTICS, published 2017).

Test [1] deals with Artificial Cell Surface (ACS): biotinylated cell surface proteins from mononuclear cells coupled to streptavidin-sepharose. In words: adsorption on ACS column, MALDI-TOF MS.
The target in test [2] is T1, His-tagged P3028 peptide (PGE73) (human).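 Note: bound protein detected by peroxidase colour with ABTS substrate, imaged on the peptide card by CCD camera at 405 nm, rampo units being raw OD405 readings.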
T1 construct: also called His-tag-P3028; not shown: His-tag
T1 peptide: VFDEFKPLVEEPQNLIK
In words: PEPSCAN ELISA; peptide on card, His-tagged P3028 in solution. (In general: An ELISA detects its analyte on a solid surface through an enzyme-linked reagent.)

No end group written: not given here.

In turn, NECFLQHK [trypsin-generated albumin fragment SEQ ID NO: 209 NECFLQHK] had a Percent Absorbed in test [1] of 22%.

In test [1], FKDLGEENFK [trypsin-generated albumin fragment SEQ ID NO: 213 …] yielded a Percent Absorbed of 8%.

For the molecule KKLDTFKVKLSLFTER (P28R variant on PEPSCAN card) [SEQ ID NO: 535], the “RAMPO Score” value in test [2] was determined as 232 rampo units.

In turn, YLYEIAR [trypsin-generated albumin fragment SEQ ID NO: 203 YLYEIAR] returned a Percent Absorbed in test [1] of 34%.

In test [1], VHTECCHGDLLECADDR [trypsin-generated albumin fragment SEQ ID NO: 212 …] yielded a Percent Absorbed of 13%.

In the case of AVMDDFAAFVEK [trypsin-generated albumin fragment SEQ ID NO: 208 …], in test [1], the Percent Absorbed was 23%.

LCTVATLR [trypsin-generated albumin fragment SEQ ID NO: 202 LCTVATLR]: in test [1], the Percent Absorbed came out at 35%.

Consider VPQVSTPTLVEVSR [trypsin-generated albumin fragment SEQ ID NO: 197 …], for which the Percent Absorbed in test [1] worked out at 59%.

Turning to KKLDTFFWKLSLFTER (P28R variant on PEPSCAN card) [SEQ ID NO: 537], the “RAMPO Score” value in test [2] turned out to be 228 rampo units.

Take KKLDTFFSKLSLFTER (P28R variant on PEPSCAN card) [SEQ ID NO: 545]: the “RAMPO Score” value in test [2] stood at 216 rampo units.

KKLDTFFYKLSLFTER (P28R variant on PEPSCAN card) [SEQ ID NO: 549]: the “RAMPO Score” value in test [2] amounted to 211 rampo units.

As to KKLDTFFMKLSLFTER (P28R variant on PEPSCAN card) [SEQ ID NO: 540], the “RAMPO Score” value in test [2] was 221 rampo units.

Consider KKLDTFFEKLSLFTER (P28R variant on PEPSCAN card) [SEQ ID NO: 570], for which, in test [2], the “RAMPO Score” value turned out to be 139 rampo units.

Consider KKLDTFFHKLSLFTER (P28R variant on PEPSCAN card) [SEQ ID NO: 547], for which the “RAMPO Score” value in test [2] turned out to be 213 rampo units.

Take KKLDTFFNKLSLFTER (P28R variant on PEPSCAN card) [SEQ ID NO: 550]: the “RAMPO Score” value in test [2] is 203 rampo units.

In the case of KKLDTFFDKLSLFTER (P28R variant on PEPSCAN card) [SEQ ID NO: 574], in test [2], the “RAMPO Score” value is 122 rampo units.

Take KYLYEIAR [trypsin-generated albumin fragment SEQ ID NO: 194 KYLYEIAR]: the Percent Absorbed in test [1] was found to be 71%.

For FQNALLVR [trypsin-generated albumin fragment SEQ ID NO: 199 FQNALLVR], in test [1], the Percent Absorbed worked out at 41%.

Turning to KKLDTFFVKDSLFTER (P28R variant on PEPSCAN card) [SEQ ID NO: 578], the “RAMPO Score” value in test [2] was 102 rampo units.

KKLDTFFVKESLFTER (P28R variant on PEPSCAN card) [SEQ ID NO: 582]: the “RAMPO Score” value in test [2] is 81 rampo units.

For the molecule KKLDTFFVKLLLFTER (P28R variant on PEPSCAN card) [SEQ ID NO: 548], the “RAMPO Score” value in test [2] turned out to be 213 rampo units.

On to KKLDTFFVKLSLKTER (P28R variant on PEPSCAN card) [SEQ ID NO: 542], for which the “RAMPO Score” value in test [2] is 220 rampo units.

As for KKLDTFFVKLSLETER (P28R variant on PEPSCAN card) [SEQ ID NO: 579], the “RAMPO Score” value in test [2] was 98 rampo units.

Regarding KKLDTFFVKLSLDTER (P28R variant on PEPSCAN card) [SEQ ID NO: 575], the “RAMPO Score” value in test [2] amounted to 112 rampo units.

For QEPERNECFLQHK (not fully specified) [trypsin-generated albumin fragment SEQ ID NO: 211 …], the Percent Absorbed in test [1] came to 18%.

The molecule RPCFSALEVDETYVPK [trypsin-generated albumin fragment SEQ ID NO: 198 …] came in with a Percent Absorbed in test [1] of 42%.

As to AAFTECCQAADK [trypsin-generated albumin fragment SEQ ID NO: 205 …], the Percent Absorbed in test [1] was 29%.

As to KVPQVSTPTLVEVSR [trypsin-generated albumin fragment SEQ ID NO: 195 …], in test [1], the Percent Absorbed came to 64%.

Consider KKLDTFFVKLSDFTER (P28R variant on PEPSCAN card) [SEQ ID NO: 580], for which the “RAMPO Score” value in test [2] was found to be 89 rampo units.

In the case of KKLDTFFVKLSEFTER (P28R variant on PEPSCAN card) [SEQ ID NO: 581], the “RAMPO Score” value in test [2] was determined as 82 rampo units.

SLHTLFGDK [trypsin-generated albumin fragment SEQ ID NO: 200 …] came in with a Percent Absorbed in test [1] of 36%.

Regarding KKLDTEFVKLSLFTER (P28R variant on PEPSCAN card) [SEQ ID NO: 536], the “RAMPO Score” value in test [2] was determined as 229 rampo units.

As for KKLDTDFVKLSLFTER (P28R variant on PEPSCAN card) [SEQ ID NO: 553], the “RAMPO Score” value in test [2] stood at 193 rampo units.

Turning to KKLDTFFVKLSLFTFR (P28R variant on PEPSCAN card) [SEQ ID NO: 571], the “RAMPO Score” value in test [2] amounted to 137 rampo units.

Turning to KKLDTFFVKLSLFTIR (P28R variant on PEPSCAN card) [SEQ ID NO: 564], the “RAMPO Score” value in test [2] came out at 163 rampo units.

With KKLDTFFVKLSLFTWR (P28R variant on PEPSCAN card) [SEQ ID NO: 539], in test [2], the “RAMPO Score” value was found to be 226 rampo units.

Consider KKLDTFFVKLSLFTTR (P28R variant on PEPSCAN card) [SEQ ID NO: 568], for which the “RAMPO Score” value in test [2] was found to be 152 rampo units.

In the case of KKLDTFFVKLSLFTVR (P28R variant on PEPSCAN card) [SEQ ID NO: 565], the “RAMPO Score” value in test [2] was determined as 163 rampo units.

For KKLDTFFVKLSLFTSR (P28R variant on PEPSCAN card) [SEQ ID NO: 563], in test [2], the “RAMPO Score” value turned out to be 165 rampo units.

Regarding KKLDTFFVKLSLFTNR (P28R variant on PEPSCAN card) [SEQ ID NO: 566], in test [2], the “RAMPO Score” value stood at 161 rampo units.

For KKLDTFFVKLSLFTAR (P28R variant on PEPSCAN card) [SEQ ID NO: 561], in test [2], the “RAMPO Score” value worked out at 174 rampo units.

Take KKLDTFFVKLSLFTCR (P28R variant on PEPSCAN card) [SEQ ID NO: 556]: in test [2], the “RAMPO Score” value is 185 rampo units.

As for KKLDTFFVKLSLFTGR (P28R variant on PEPSCAN card) [SEQ ID NO: 101], the “RAMPO Score” value in test [2] worked out at 233 rampo units.

For the molecule CCAAADPHECYAK [trypsin-generated albumin fragment SEQ ID NO: 204 …], the Percent Absorbed in test [1] came to 32%.

The molecule QEPERNECFLQHK (not fully specified) [trypsin-generated albumin fragment SEQ ID NO: 207 …] yielded a Percent Absorbed in test [1] of 25%.

CCTESLVNR [trypsin-generated albumin fragment SEQ ID NO: 206 …]: the Percent Absorbed in test [1] was 26%.

For KKLDTFFVKLSLFDER (P28R variant on PEPSCAN card) [SEQ ID NO: 567], the “RAMPO Score” value in test [2] was 159 rampo units.

On to KKLDTFFVKLSLFEER (P28R variant on PEPSCAN card) [SEQ ID NO: 576], for which the “RAMPO Score” value in test [2] amounted to 110 rampo units.

VFDEFKPLVEEPQNLIK [trypsin-generated albumin fragment SEQ ID NO: 196 …] showed a Percent Absorbed in test [1] of 60%.

As to KKLDTFFVKLSLFTEC (P28R variant on PEPSCAN card) [SEQ ID NO: 559], the “RAMPO Score” value in test [2] was 175 rampo units.

Regarding KKLDTFFVKLSLFTEE (P28R variant on PEPSCAN card) [SEQ ID NO: 577], the “RAMPO Score” value in test [2] was found to be 107 rampo units.

As for KKLDTFFVKLSLFTEQ (P28R variant on PEPSCAN card) [SEQ ID NO: 573], in test [2], the “RAMPO Score” value amounted to 133 rampo units.

Regarding KKLDTFFVKLSLFTED (P28R variant on PEPSCAN card) [SEQ ID NO: 572], in test [2], the “RAMPO Score” value came out at 133 rampo units.

For the molecule KKLDTFFVYLSLFTER (P28R variant on PEPSCAN card) [SEQ ID NO: 552], the “RAMPO Score” value in test [2] came to 198 rampo units.

Regarding KKLDTFFVGLSLFTER (P28R variant on PEPSCAN card) [SEQ ID NO: 97], the “RAMPO Score” value in test [2] stood at 188 rampo units.

For the molecule KKLDTFFVDLSLFTER (P28R variant on PEPSCAN card) [SEQ ID NO: 569], the “RAMPO Score” value in test [2] is 149 rampo units.

Take KKLDTFFVALSLFTER (P28R variant on PEPSCAN card) [SEQ ID NO: 554]: the “RAMPO Score” value in test [2] was 191 rampo units.

For the molecule KKLDTFFVCLSLFTER (P28R variant on PEPSCAN card) [SEQ ID NO: 541], in test [2], the “RAMPO Score” value stood at 220 rampo units.

As for KKLDTFFVPLSLFTER (P28R variant on PEPSCAN card) [SEQ ID NO: 534], the “RAMPO Score” value in test [2] amounted to 233 rampo units.

Turning to KKLDTFFVLLSLFTER (P28R variant on PEPSCAN card) [SEQ ID NO: 562], the “RAMPO Score” value in test [2] was 166 rampo units.

KKLDTFFVFLSLFTER (P28R variant on PEPSCAN card) [SEQ ID NO: 560]: the “RAMPO Score” value in test [2] worked out at 174 rampo units.

In the case of KKLDTFFVILSLFTER (P28R variant on PEPSCAN card) [SEQ ID NO: 555], the “RAMPO Score” value in test [2] stood at 190 rampo units.

On to KKLDTFFVGLSLFTER (P28R variant on PEPSCAN card) [SEQ ID NO: 98], for which, in test [2], the “RAMPO Score” value came to 188 rampo units.

The molecule LKECCEKPLLEK [trypsin-generated albumin fragment SEQ ID NO: 201 …] returned a Percent Absorbed in test [1] of 36%.

Turning to CKLDTFFVKLSLFTER (P28R variant on PEPSCAN card) [SEQ ID NO: 546], the “RAMPO Score” value in test [2] came out at 215 rampo units.
